PMC5103362 (Autophagy, 2016)

T1: Vps15 (subunit of the purified yeast complex I) (S. cerevisiae, UniProt P22219 1-1454)
T1 construct: Vps15, S. cerevisiae
T1 sequence (looked up): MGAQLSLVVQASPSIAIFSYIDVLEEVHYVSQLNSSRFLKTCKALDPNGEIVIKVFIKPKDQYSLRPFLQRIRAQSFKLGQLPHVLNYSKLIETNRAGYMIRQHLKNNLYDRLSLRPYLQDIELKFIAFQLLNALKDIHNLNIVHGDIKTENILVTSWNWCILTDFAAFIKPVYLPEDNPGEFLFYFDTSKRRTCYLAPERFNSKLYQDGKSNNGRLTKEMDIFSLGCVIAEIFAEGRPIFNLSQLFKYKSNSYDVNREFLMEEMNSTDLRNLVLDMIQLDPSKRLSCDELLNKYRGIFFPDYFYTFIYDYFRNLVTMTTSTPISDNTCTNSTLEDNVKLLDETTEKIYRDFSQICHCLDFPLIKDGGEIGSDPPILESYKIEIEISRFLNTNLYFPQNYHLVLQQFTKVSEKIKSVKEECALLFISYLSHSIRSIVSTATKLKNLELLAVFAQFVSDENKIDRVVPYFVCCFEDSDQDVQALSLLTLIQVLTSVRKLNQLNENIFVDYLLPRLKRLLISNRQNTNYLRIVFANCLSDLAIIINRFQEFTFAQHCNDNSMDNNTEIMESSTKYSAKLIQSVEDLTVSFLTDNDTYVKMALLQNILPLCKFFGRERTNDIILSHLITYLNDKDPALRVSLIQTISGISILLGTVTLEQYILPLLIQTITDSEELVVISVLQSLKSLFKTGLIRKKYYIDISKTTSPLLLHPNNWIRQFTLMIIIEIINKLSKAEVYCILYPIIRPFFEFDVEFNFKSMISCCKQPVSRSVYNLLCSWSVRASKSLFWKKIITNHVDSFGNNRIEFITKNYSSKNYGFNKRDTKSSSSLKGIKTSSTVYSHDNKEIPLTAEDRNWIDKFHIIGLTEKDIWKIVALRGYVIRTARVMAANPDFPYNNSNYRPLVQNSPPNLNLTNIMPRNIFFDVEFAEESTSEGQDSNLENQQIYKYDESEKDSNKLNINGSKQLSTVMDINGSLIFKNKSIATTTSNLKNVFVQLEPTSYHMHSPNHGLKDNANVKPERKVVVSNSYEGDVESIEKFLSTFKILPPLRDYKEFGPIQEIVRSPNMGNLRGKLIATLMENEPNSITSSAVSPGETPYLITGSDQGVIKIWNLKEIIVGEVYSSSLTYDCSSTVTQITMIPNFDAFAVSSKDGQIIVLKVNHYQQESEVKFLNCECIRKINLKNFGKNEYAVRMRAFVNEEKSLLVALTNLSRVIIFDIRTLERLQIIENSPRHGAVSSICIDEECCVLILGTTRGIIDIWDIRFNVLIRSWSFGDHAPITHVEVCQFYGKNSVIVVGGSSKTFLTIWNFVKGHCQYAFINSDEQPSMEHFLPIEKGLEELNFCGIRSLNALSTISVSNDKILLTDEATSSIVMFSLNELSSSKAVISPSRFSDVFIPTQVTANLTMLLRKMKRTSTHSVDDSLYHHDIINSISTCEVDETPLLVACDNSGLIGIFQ

B1: Atg38 C-terminal homodimerization domain (crystallized region, residues 119 to 211) (domain or fragment, S. cerevisiae, UniProt Q05789 119-211, looked up)
chain: YQDTLSPINDPLLMSILNRLQFNLNNDIQLKTEGGKNSKNSEMKINLRLEQFKKELVLYEQKKFKEYGMKIDEITKENKKLANEIGRLRERWD
notes: Atg38, S. cerevisiae, crystallized region, residues 119 to 211; Limits are those seen in the crystal; the proteolysed protein was not purified further; A selenomethionine derivative was used for phasing; also called Atg38 C-terminal domain; C-terminal region of Atg38; source: E. coli, purified full-length Atg38 subjected to limited proteolysis with subtilisin
B2: Atg38 tailΔ (210 to 226 deleted), recombinant (domain or fragment, S. cerevisiae, UniProt Q05789 1-209, looked up)
chain: MSTLAEVYTIIEDAEQECRKGDFTNAKAKYQEAIEVLGPQNENLSQNKLSSDVTQAIDLLKQDITAKIQELELLIEKQSSEENNIGMVNNNMLIGSVILNNKSPINGISNARNWDNPAYQDTLSPINDPLLMSILNRLQFNLNNDIQLKTEGGKNSKNSEMKINLRLEQFKKELVLYEQKKFKEYGMKIDEITKENKKLANEIGRLRER
notes: Atg38, S. cerevisiae; GST fusions were eluted with glutathione or cut with TEV as needed; likely cut for SEC-MALS; source: E. coli, purified (Glutathione Sepharose, S75)
B3: Atg38 stalkΔ (182 to 209 deleted), recombinant (natural protein, S. cerevisiae, UniProt Q05789 1-226, looked up)
chain: MSTLAEVYTIIEDAEQECRKGDFTNAKAKYQEAIEVLGPQNENLSQNKLSSDVTQAIDLLKQDITAKIQELELLIEKQSSEENNIGMVNNNMLIGSVILNNKSPINGISNARNWDNPAYQDTLSPINDPLLMSILNRLQFNLNNDIQLKTEGGKNSKNSEMKINLRLEQFKKELVLYEQKKWDSLVESAKQRRDKQKN
notes: GST fusions were eluted with glutathione or cut with TEV as needed; likely cut for SEC-MALS; source: E. coli, purified (Glutathione Sepharose, S75)
B4: Vps30/Atg6 (subunit of the purified yeast complex I) (natural protein, S. cerevisiae, UniProt Q02948 1-557, looked up)
chain: MKCQTCHLPLQLDPSLEGLSLTQRNLLLSNNSIITATNENVISNKGIEAADNCGPQIPKERLRRLGEIQNIKDLNLKDDKLITDSFVFLNHDDDDNANITSNSREDQRYGNANGNDNKKANSDTSDGTSTFRDHDEEEQEATDEDENQQIQLNSKTLSTQVNAMTNVFNILSSQTNIDFPICQDCCNILINRLKSEYDDAIKERDTYAQFLSKLESQNKEISESNKEKQYSHNLSEKENLKKEEERLLDQLLRLEMTDDDLDGELVRLQEKKVQLENEKLQKLSDQNLMDLNNIQFNKNLQSLKLQYELSLNQLDKLRKINIFNATFKISHSGPFATINGLRLGSIPESVVPWKEINAALGQLILLLATINKNLKINLVDYELQPMGSFSKIKKRMVNSVEYNNSTTNAPGDWLILPVYYDENFNLGRIFRKETKFDKSLETTLEIISEITRQLSTIASSYSSQTLTTSQDESSMNNANDVENSTSILELPYIMNKDKINGLSVKLHGSSPNLEWTTAMKFLLTNVKWLLAFSSNLLSKSITLSPTVNYNDKTISGN
notes: Vps30/Atg6, S. cerevisiae
B5: Vps34 (subunit of the purified yeast complex I) (enzyme, S. cerevisiae, UniProt P22543 1-875, looked up)
chain: MSLNNITFCVSQDLDVPLKVKIKSLEGHKPLLKPSQKILNPELMLIGSNVFPSSDLIVSLQVFDKERNRNLTLPIYTPYIPFRNSRTWDYWLTLPIRIKQLTFSSHLRIILWEYNGSKQIPFFNLETSIFNLKDCTLKRGFESLKFRYDVIDHCEVVTDNKDQENLNKYFQGEFTRLPWLDEITISKLRKQRENRTWPQGTFVLNLEFPMLELPVVFIEREIMNTQMNIPTLKNNPGLSTDLREPNRNDPQIKISLGDKYHSTLKFYDPDQPNNDPIEEKYRRLERASKNANLDKQVKPDIKKRDYLNKIINYPPGTKLTAHEKGSIWKYRYYLMNNKKALTKLLQSTNLREESERVEVLELMDSWAEIDIDDALELLGSTFKNLSVRSYAVNRLKKASDKELELYLLQLVEAVCFENLSTFSDKSNSEFTIVDAVSSQKLSGDSMLLSTSHANQKLLKSISSESETSGTESLPIVISPLAEFLIRRALVNPRLGSFFYWYLKSESEDKPYLDQILSSFWSRLDKKSRNILNDQVRLINVLRECCETIKRLKDTTAKKMELLVHLLETKVRPLVKVRPIALPLDPDVLICDVCPETSKVFKSSLSPLKITFKTTLNQPYHLMFKVGDDLRQDQLVVQIISLMNELLKNENVDLKLTPYKILATGPQEGAIEFIPNDTLASILSKYHGILGYLKLHYPDENATLGVQGWVLDNFVKSCAGYCVITYILGVGDRHLDNLLVTPDGHFFHADFGYILGQDPKPFPPLMKLPPQIIEAFGGAESSNYDKFRSYCFVAYSILRRNAGLILNLFELMKTSNIPDIRIDPNGAILRVRERFNLNMSEEDATVHFQNLINDSVNALLPIVIDHLHNLAQYWRT
notes: Vps34, S. cerevisiae
B6: GST-Atg38 (1 to 78) (domain or fragment, S. cerevisiae, UniProt Q05789 1-78, looked up)
chain: MSTLAEVYTIIEDAEQECRKGDFTNAKAKYQEAIEVLGPQNENLSQNKLSSDVTQAIDLLKQDITAKIQELELLIEKQ
notes: Atg38, S. cerevisiae, MIT domain, residues 1 to 78; also called MIT domain alone; source: E. coli, purified (Glutathione Sepharose, eluted with glutathione); not shown: GST, N-terminal, kept
B7: Atg38 capΔ (123 to 181 deleted), recombinant (natural protein, S. cerevisiae, UniProt Q05789 1-226, looked up)
chain: MSTLAEVYTIIEDAEQECRKGDFTNAKAKYQEAIEVLGPQNENLSQNKLSSDVTQAIDLLKQDITAKIQELELLIEKQSSEENNIGMVNNNMLIGSVILNNKSPINGISNARNWDNPAYQDTFKEYGMKIDEITKENKKLANEIGRLRERWDSLVESAKQRRDKQKN
notes: as for B3
B8: Atg14 (subunit of the purified yeast complex I) (natural protein, S. cerevisiae, UniProt P38270 1-344, looked up)
chain: MHCPICHHRAHVVYCAHCINTSPSLLLKLKLDLILLKDENKELNGKVEQILNEAMNYDQLDIKRMEKKKDPLMNSLMKLDVLRMKKNNNLIRHRIEQLNERIYSKRNHISELKVEIDNYKCYKVGTGTDKLREQVEISDAKNKLAQVSKICESARDYKLNLLNNWFVIQKLQDNFQIPFAIAFQPLISLKNFRILPLAITNDSINIMWKYISFFSDILMIKLPYTNKICEQPMFEFSDSIQTVVQRLIKLIINILQICRHLKLVPSTPMDIPWLLDQYDVDGLFYNMVKRNKMKCRSVSLYWTFGMLYSMVLDNMNNPQRGHPARRTAPPPTVTGPHDRWYVVG
notes: Atg14, S. cerevisiae

Tests used:
[1] = target: the molecule itself; experiment: crystal structure; full-length Atg38 after limited proteolysis with subtilisin; 2.2 Å, MAD with selenomethionine protein
[2] = target: the molecule itself; experiment: SEC-MALS; Atg38 full-length, MIT domain and deletion variants alone on S75 10/30; 20 mM Tris pH 7.9, 300 mM NaCl, 1 mM TCEP
[3] = target: T1, Vps15 (subunit of the purified yeast …); experiment: SEC-MALS; purified yeast complex I (co-expressed, co-purified) and gel-filtration purified complex I + Atg38 on S200 10/30; 20 mM Tris pH 8.8, 150 mM NaCl, 1 mM TCEP; conditions: both partners purified
[4] = target: T2, yeast complex I (Vps15-Vps34-Vps30-Atg14 heterotetramer) (S. cerevisiae, UniProt P22219 1-1454; P22543 1-875; Q02948 1-557; P38270 1-344); experiment: pull-down; GST affinity isolation: GST fusions of Atg38 on glutathione Sepharose, purified yeast complex I at 1.78 µM with 10-fold excess of GST fusion; 50 mM Tris pH 8.8, 150 mM NaCl, 1 mM TCEP, on ice 90 min; stained gel; conditions: both partners purified
T2 construct: Vps15, S. cerevisiae, subunit of complex I; Vps34, S. cerevisiae, subunit of complex I; Vps30/Atg6, S. cerevisiae, subunit of complex I; Atg14, S. cerevisiae, subunit of complex I; expected mass 379 kDa; also called CI; heterotetrameric S. cerevisiae complex I; copies: 1 + 1 + 1 + 1

Binder	stoichiometry N [2]	stoichiometry N [3]	other results
B1			binding result [1]: binds
B2	2		
B3	2		
B4		1	
B5		1	
B6			binding result [4]: binds
B7	2		
B8		1	
